{"source": "paper PMC7150784", "key": {"[1]": {"molecular_target": "lizard alpha-1 nAChR orthosteric site mimotope", "assay": "BLI"}, "[2]": {"molecular_target": "amphibian alpha-1 nAChR orthosteric site mimotope (Xenopus laevis)", "assay": "BLI; Octet RED 96; […] (1 µg/mL) […]; running buffer 1X DPBS with 0.1% BSA and 0.05% Tween-20; […], in triplicate"}}}
{"substance": "alpha-cobratoxin (from UniProt P01391 1-71) (natural protein)", "values": [{"measurement": "AUC (potency) above that on the rodent mimotope", "setting": "[1]", "value": 30, "unit": "%"}, {"measurement": "AUC (potency) above that on the lizard mimotope", "setting": "[2]", "value": 50, "unit": "%"}, {"measurement": "AUC (potency) above that on the rodent mimotope", "setting": "[2]", "value": 98, "unit": "%"}]}
